The text below walks through data of patent US20080280313.

Series [1] concerns the target T1, CaM kinase II substrate (281-291) MHKNETVECLK (Calbiochem).
T1 chain: MHKNETVECLK

The target in series [2] is T2, Syntide-2 substrate PLARTLSVAGLPGKK (Calbiochem).
T2 chain: PLARTLSVAGLPGKK

In series [3] the target is T3, CKII substrate RRREEETEEE (New England Biolabs).
T3 chain: RRREEETEEE

A further series concerns the target T4, β-casein (Sigma), P02666.
T4 chain: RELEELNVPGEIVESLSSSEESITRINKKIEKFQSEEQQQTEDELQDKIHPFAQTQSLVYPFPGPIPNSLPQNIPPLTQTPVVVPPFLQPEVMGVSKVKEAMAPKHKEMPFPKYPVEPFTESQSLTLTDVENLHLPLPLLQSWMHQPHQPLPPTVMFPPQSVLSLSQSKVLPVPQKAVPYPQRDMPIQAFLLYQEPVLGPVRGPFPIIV

Series [4] concerns the target T5, kemptide LRRASLG (Promega).
T5 chain: LRRASLG

Series [5] addresses T6, CKI phosphopeptide substrate KRRRALS(p)VASLPGL (New England Biolabs).
T6 chain: KRRRALSVASLPGL

Series [6] concerns the target T7, CKII substrate RRADDSDDDDD (Calbiochem).
T7 chain: RRADDSDDDDD

Series [7] deals with T8, partially dephosphorylated α-casein (Sigma), P02662.
T8 chain: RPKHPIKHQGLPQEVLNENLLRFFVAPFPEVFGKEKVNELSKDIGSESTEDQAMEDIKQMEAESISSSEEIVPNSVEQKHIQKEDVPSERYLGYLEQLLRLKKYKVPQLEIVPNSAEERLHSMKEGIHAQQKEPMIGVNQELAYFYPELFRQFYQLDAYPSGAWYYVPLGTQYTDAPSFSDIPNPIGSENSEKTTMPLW

The target in series [8] is T9, CKI substrate peptide RRKDLHDDEEDEAMSITA (Calbiochem).
T9 chain: RRKDLHDDEEDEAMSITA

Series [9] has as its target T10, CKI substrate DDDEESITRR (Promega).
T10 chain: DDDEESITRR

B1: FLAGTgCKIβ, N-terminal FLAG epitope tagged Toxoplasma gondii casein kinase I beta (protein)
chain: AHHQDTRNHTGVGPSSSIPLKDLKIAGVWKIGRKIGSGSFGDIYKGLNSQTGQEVALKVESTKAKHPQLLYEYKLLKHLQGGTGIAQVFCCETAGDHNIMAMELLGPSLEDVFNLCNRTFSLKTILLLADQFLQRVEYIHSKNFIHRDIKPDNFLLGGAGNQNTIYVIDFGLAKKFRDPKTHQHIPYRENKNLTGTARYASISAHLGSEQSRRDDLEAVGYVLMYFCRGGTLPWQGIKANTKQEKYHKIMEKKMSTPVEVLCKGYPSEFATYLHYCRSLRFEDRPDYAYLKRLFRDLYIKEGYDDSDREFDWTVKLSSRSLGPPSSRAQHVLLSQDTRTRGKRETDRPVAARSGDRERGIHFSNGNVGNPSMATNPGGLSVMVHERTSLVDQGDRGSRETSTRKEDAKDGRWPGGRFSCLPLLCRRSPTKA
Consider B1, for which the “kinase activity with peptide substrate” value in series [1], in [2], in [3], in [4], in series [6] and in [9] was “failed to show concentration dependent kinase activity” in each case. For the same protein, the Km(app) in the series with β-casein (Sigma), P02666 came out at 12 µM; in series [5] it was 79 µM; in [7], 5 µM; in series [8], 15 µM. Besides, the Vmax(app) (nmole min^-1 mg^-1) in the series with β-casein (Sigma), P02666 is 16; in series [5], 37; in [7], 12; in series [8], 8.

B2: native EtCKIα, partially purified from Eimeria tenella unsporulated oocysts (protein)
chain: MDVRVGGKYRLGRKIGSGSFGDIYLGTNISTGDEVAIKLESVRSRHPQLIYESKLYKILTGGIGIPTLYWYGIEGDYNVMIIELLGPSLEDLFSICNRKLSLKTVLMLADQMLNRIEFVHSRHFIHRDIKPDNFLIGRGKKMSIVFAIDFGLAKKYRDPRTQSHIPYREGKNLTGTARYASVNTHLGIEQSRRDDLEALGYVLMYFNRGSLPWQGLKATTKKDKYDKIMEKKMSTPIEVLCKQFPFEFITYLNYCRSLRFEDRPDYSYLRRLFKDLFFREGYQYDFIFDWTFLHAERERERQRRSMVNQGAESGNQWRRDASGRDPLGRLPQLEP
For the protein B2, the “Vmax relative to the α-casein substrate” value in [5] is “the phosphopeptide yielded a much higher Vmax (2.5× greater activity) than the α-casein substrate”.
